experiment: soluble on expression in E. coli; label from the status in PepcDB or PDB records

Sequence	soluble on expression in E. coli
MDPACASVDNSKSDPLTDSYPQKYRYSFHRNCQRIMLGVNLKRKNSHYTKGATMTATHNHYLAVLGEDFVAQQYANEGYDITARNVSFSVGEIDIIATSPQGEVVFIEVKTRSSSLMDAAEAVTPTKMRKIHRAASKWLQGKPFADIRFDVVAVHVDEYGELDMTRYQGVEHGAC	not soluble
MSLDKPVIKISTENVDLIYRVGDNGRLYQSYLGKRLNHATDIAHLPQGSEAYLTHGMEDYFEPAIHIVHNDGNPSTLLKYVSHTRNQVSPGVDEVVITMQDDKYPVTVKLHYVAYQKENLIKTFTEISHREKKPVQLHKYASSMLHLNRANYFLTEFSGDWASEAHVKEQPLEFGKKTIDTKLGARANMFCSPFFQLALDGKSEENQGEVLVGTLGWTGNFSFVFEVDNKNELRVISGINPYASEYSLKPNEIFRTPDFYFTYSFKGKGQASRNFHDWARKYQVKDGNQTRMTLLNNWEATYFDFDEAKLVKLMDDAVELGVDMFLLDDGWFANKYPRSGDHQGLGDWDETADKLPHGIGYLTEAAKKKGIKFGIWIEPEMVNPKSELYEKHKDWVIHLPNRDEYYFRNQLVLDLSNPKVQDYVFGVVDNLMTKYPDIAFFKWDCNSPITNIYSVYLKDKQSHLYIDYVRGLYNVLERVKAKYPDLPMMLCSGGGGRSDYEALSYFTEFWPSDNTDPIERLFIQWGFSQVFPAKTMCAHVTTWNKNSSVKFRTDVAMMCKLGFDIKLADMSKDDETYCRTAVQNYNRLKPVVLEGDMYRLVSPYGSNHTSTMYVGKDKDKAVVFAFDIHPRYAEKILPVRLQGLDADKMYRVKEINLMPGANSEGHHHHHH	not soluble
MKAREILEILNAELLTGEENLDMEFNAACGSDLMSDVMAYVKENVVLLTGLVNPQVIRTAEMMDIKLVVFIRGKRPEEKIIQMAKEKGIAIMTTNDPMFIACGKLYSAGITERGVWD	not soluble
MTTNSSSNTVVVYHSGYGHTHRMAEAVAEGAEATLHAIDAEGNLSEDGWAALDAADAIIFGTPTYMGGPSWQFKKFADASSKPWFSAKWQDKVFGGFTNSASLNGDKLNTLQYLVLLAGQHGGLWVSLGIKPSNLKSSVRNDANRMGSYIAPMAQSDADAAPEEMSVGDLETARLYGARVANVARQHKSTERV	soluble
SIHSMDKPIESKEGNVSVGKFKLSDSSINNPEEIISVPSSTTEIEKVEMKPGRGEGLNPELLPASVSELLIPSPFQPQIPDGNNSSVEFHPSKVVLIGTAHVSEKSVNEVRSAIRNLKPDIVAVELCRARYDSLKGNVPETNQVPIKEILTEGKVYYYLVHWLLAYVQKKIGEDMGVKPGSEMISAIEEAEASGAKIALIDRDIQVTLQRFWGRMKFTEKIKMLGSLIGGLIGIGKGAEIDIDQITQQDVVTALVSELREFAPTAAETLIDERDAYLAGSILRTAAGGNKTIVAVIGAGHKPGVINYLENPKSLPPLNSLMQIPKKR	not soluble
MAHHHHHHMKAVSIRQVSAIIILDNNGKRIAVKYYNDQAPLKGENKLVPKNTNKDLVSNAFENTYNNLRTVEDQKLFESDITEKARKLGGDSSETEVLVLNKFTILYLLINDVSIYIVGEESDNEIILHEIMQTVQQCLDNVTNNQIGKKQLLDKLDSIYLILDEIADSGIIMETNPNVIINRLYMHESDLQEHTPLNQAISSAKENIIRSLLSGT	not soluble
MVTQTNPVPVTYPTDAYIPTYLPDDKVSNLADLKKLIEMDSRLDLYLTRRRLDTSINLPTNTKTKDHPPNKEMLRIYVYNTTESSPRSDSGTPADSGKTTWTLRIEGKLLHESANGKHPFSEFLEGVAVDFKRLKPLGMGKKRKRDSSLSLPLNLQQPEYNDQDSTMGDNDNGEDEDSAEAESREEIVDALEWNYDENNVVEFDGIDIKRQGKDNLRCSITIQLRGVDGGKVQYSPNLATLIGMQTGSVNDAVYSIYKYILINNLFVTEQTEAQDGSNDAEDSSNENNNKNGAGDDDGVEGSTPKDKPELGEVKLDSLLQKVLDTNAAHLPLMNVVQTVNKLVSPLPPIILDYTIDLSKDTTYGATTLDVDVSHILHQPQPQPNLQKEEETDAEDTAKLREITKLALQLNSSAQKYQFFHELSLHPRETLTHYLWSSKQNELVLQGDQYFNEDAARTSDIYSNNNNDRSLMGNISLLYSQGRL	soluble
MCITFIKTAKSSLDKYKLILLNNRDEQLLRPTKEMHWHDGILSGVDKQENARGTWLGLNENGRIGMMLSITQTQESKNLHAPSRGGIVNEFLNANDTSKMIESLKKCASKYNGFQLVAVEKNSTGLYEVRTLANQQVDEIEVCQLKDEYHVVSNSPPTKPYQKAVQGKKLLREHLENSDQFSVDQIFEKLLSIAKNTTQWYPDAQLQYQTQNVEEYNRPLSAIFIKYPEGTRMYGTRCHTLITVDQKDKINILERRLLPEQSTWHDARFEFVLNGS	not soluble

Reference: the DeepSol protein solubility set
